Experiments:
Human_IgG [1] = test: microarray control spot; secondary antibody after B264 0.0016 ug/mL
Full-length mouse IgG [2] = test: as above
Human_IgG [3] = test: microarray control spot; secondary antibody after B266-1 1 ug/mL
Full-length mouse IgG [4] = test: as above
Human_IgG [5] = test: microarray control spot; secondary antibody after B264 0.2 ug/mL
Full-length mouse IgG [6] = test: as above
Human_IgG [7] = test: microarray control spot; secondary antibody after B264, head 0.08 ug (text 0.008 ug/mL)
Full-length mouse IgG [8] = test: as above
Human_IgG [9] = test: microarray control spot; secondary antibody after B266-1, head 0.08 ug (text 0.008 ug/mL)
Full-length mouse IgG [10] = test: as above
Human_IgG [11] = test: microarray control spot; secondary antibody after B266-1 0.0016 ug/mL
Full-length mouse IgG [12] = test: as above
Peptide_092 (human) = target: T1, Peptide_092 (human); test: peptide microarray, secondary antibody only
T1 sequence (peptide): PTFQFFKKGQKVGEF

Peptide_044 (human) = target: T2, Peptide_044 (human); test: peptide microarray, secondary antibody only
T2 sequence (peptide): FSATWCGPCKMIKPF

Peptide_097 (human) = target: T3, Peptide_097 (human); test: peptide microarray, secondary antibody only
T3 sequence (peptide): FKKGQKVGEFSGANK

Peptide_096 (human) = target: T4, Peptide_096 (human); test: peptide microarray, secondary antibody only
T4 sequence (peptide): FFKKGQKVGEFSGAN

Peptide_051 (human) = target: T5, Peptide_051 (human); test: peptide microarray, secondary antibody only
T5 sequence (peptide): PCKMIKPFFHSLSEK

Human_IgG [13] = test: microarray control spot; secondary antibody only
Full-length mouse IgG [14] = test: microarray control spot; secondary antibody only
Human_IgG [15] = test: microarray control spot; secondary antibody after B266-1 0.2 ug/mL
Full-length mouse IgG [16] = test: as above
Human_IgG [17] = test: microarray control spot; secondary antibody after B264 1 ug/mL
Full-length mouse IgG [18] = test: as above
Human_IgG [19] = test: microarray control spot; secondary antibody after B266-1 0.04 ug/mL
Full-length mouse IgG [20] = test: as above
Human_IgG [21] = test: microarray control spot; secondary antibody after B264 0.04 ug/mL
Full-length mouse IgG [22] = test: as above
Human_IgG [23] = test: microarray control spot; secondary antibody after B266-1 5 ug/mL
Full-length mouse IgG [24] = test: as above
Human_IgG [25] = test: microarray control spot; secondary antibody after B264 5 ug/mL
Full-length mouse IgG [26] = test: as above

- signal (blank-control = 1) (Human_IgG [1]): 45.7
- signal (blank-control = 1) (Full-length mouse IgG [2]): 74.5
- signal (blank-control = 1) (Human_IgG [3]): 52.8
- signal (blank-control = 1) (Full-length mouse IgG [4]): 65.4
- signal (blank-control = 1) (Human_IgG [5]): 36.3
- signal (blank-control = 1) (Full-length mouse IgG [6]): 46
- signal (blank-control = 1) (Human_IgG [7]): 52.6
- signal (blank-control = 1) (Full-length mouse IgG [8]): 76.3
- signal (blank-control = 1) (Human_IgG [9]): 47.9
- signal (blank-control = 1) (Full-length mouse IgG [10]): 74.6
- signal (blank-control = 1) (Human_IgG [11]): 35.4
- signal (blank-control = 1) (Full-length mouse IgG [12]): 84.8
- signal (blank-control = 1) (Peptide_092 (human)): 2.28
- signal (blank-control = 1) (Peptide_044 (human)): 1.73
- signal (blank-control = 1) (Peptide_097 (human)): 1.34
- signal (blank-control = 1) (Peptide_096 (human)): 1.18
- signal (blank-control = 1) (Peptide_051 (human)): 0.47
- signal (blank-control = 1) (Human_IgG [13]): 46.6
- signal (blank-control = 1) (Full-length mouse IgG [14]): 54.6
- signal (blank-control = 1) (Human_IgG [15]): 49.6
- signal (blank-control = 1) (Full-length mouse IgG [16]): 71.4
- signal (blank-control = 1) (Human_IgG [17]): 20.8
- signal (blank-control = 1) (Full-length mouse IgG [18]): 24.5
- signal (blank-control = 1) (Human_IgG [19]): 49.7
- signal (blank-control = 1) (Full-length mouse IgG [20]): 79.7
- signal (blank-control = 1) (Human_IgG [21]): 48.1
- signal (blank-control = 1) (Full-length mouse IgG [22]): 69.5
- signal (blank-control = 1) (Human_IgG [23]): 35.8
- signal (blank-control = 1) (Full-length mouse IgG [24]): 47
- signal (blank-control = 1) (Human_IgG [25]): 6.7
- signal (blank-control = 1) (Full-length mouse IgG [26]): 7.16
Substance: fluorescence-labeled secondary anti-mouse-IgG antibody (anti-mouse IgG(H+L) (Thermo 84545))

Reference: patent publication US20240192215A1
